The results in this text go back to patent US20220177587A1, “METHODS AND USES OF VARIANT CD80 FUSION PROTEINS AND RELATED CONSTRUCTS” (Alpine Immune Sciences, Inc., priority 2018, published 2022).

B1: variant CD80 IgV-Fc (inert) H18F/A26D/E35D/D46E/M47T/V68M/A71G/D90G (Fc fusion)
chain: VIHVTKEVKEVATLSCGFNVSVEELDQTRIYWQKDKKMVLTMMSGETNIWPEYKNRTIFDITNNLSIMILGLRPSDEGTYECVVLKYEKGAFKREHLAEVTLSVKAD
B2: variant CD80 IgV-Fc (inert) H18V/A26Q/E35D/M47V/V68L/A71G/D90G (Fc fusion)
chain: B1 chain with F18V, D26Q, E46D, T47V, M68L
B3: variant CD80 IgV-Fc (inert) H18F/A26P/E35D/M47I/V68M/A71G/D90G (Fc fusion)
chain: B1 chain with D26P, E46D, T47I
B4: variant CD80 IgV-Fc (inert) H18V/A26D/E35D/M47V/V68M/A71G/D90G (Fc fusion)
chain: B1 chain with F18V, E46D, T47V
B5: variant CD80 IgV-Fc (inert) H18Y/A26P/E35D/M47Y/V68I/A71G/D90G (Fc fusion)
chain: B1 chain with F18Y, D26P, E46D, T47Y, M68I
B6: variant CD80 IgV-Fc (inert) H18F/A26N/E35D/M47V/V68M/A71G/D90K (Fc fusion)
chain: B1 chain with D26N, E46D, T47V, G90K
B7: variant CD80 IgV-Fc M47L (Fc fusion)
chain: B1 chain with F18H, D26A, D35E, E46D, T47L, M68V, G71A, G90D
B8: variant CD80 IgV-Fc D46V/L85Q (Fc fusion)
chain: B1 chain with F18H, D26A, D35E, E46V, T47M, M68V, G71A, L85Q, G90D
B9: variant CD80 IgV-Fc E35D/M47L/V68M (Fc fusion)
chain: B1 chain with F18H, D26A, E46D, T47L, G71A, G90D

Changes are numbered by the printed parent chain. Names and notes keep the numbering of the source.

In one test the target is CD28 (human) (UniProt P10747). Nature of the test: flow cytometry, Jurkat cells (CD28). (In general: A flow cytometer gives signals particle by particle.)
The molecule B1 had an MFI at 33.3 nM of 6030 MFI.
Still for that read-out and setting: next, B2: 3130 MFI.
B3 showed an MFI at 33.3 nM of 4800 MFI.
B4 came in with an MFI at 33.3 nM of 6250 MFI.
The same measure, in the same setting: next, B5: 1820 MFI; B6: 3170 MFI.

The target of another test is human PD-L1 (human) (UniProt Q9NZQ7). Nature of the test: flow cytometry, CHO cells expressing huPD-L1.
Sequence of human PD-L1 (human) (Q9NZQ7 19-290): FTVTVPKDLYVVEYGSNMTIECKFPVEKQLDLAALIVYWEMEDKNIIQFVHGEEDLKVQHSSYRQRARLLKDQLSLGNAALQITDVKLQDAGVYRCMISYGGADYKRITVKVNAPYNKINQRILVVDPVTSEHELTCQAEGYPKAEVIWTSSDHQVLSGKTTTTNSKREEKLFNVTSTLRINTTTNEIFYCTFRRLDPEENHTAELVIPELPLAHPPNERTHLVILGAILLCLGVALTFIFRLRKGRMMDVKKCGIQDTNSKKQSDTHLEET
For the molecule B7, the MFI at 33.3 nM was 1900 MFI.
On the same count and under the same terms, next, B8: 2200 MFI; B9: 27900 MFI.

For the next test, the target named is human CTLA-4 (human) (UniProt P16410). Kind of test: flow cytometry, CHO cells expressing huCTLA-4.
Sequence of human CTLA-4 (human) (P16410 36-223): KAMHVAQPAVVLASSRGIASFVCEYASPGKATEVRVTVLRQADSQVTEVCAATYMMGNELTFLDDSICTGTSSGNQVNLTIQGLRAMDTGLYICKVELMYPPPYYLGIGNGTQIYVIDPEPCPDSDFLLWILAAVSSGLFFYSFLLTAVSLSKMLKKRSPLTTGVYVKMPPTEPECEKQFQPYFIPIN
For B7, the MFI at 33.3 nM was 30800 MFI.
The same measure, in the same setting: next, B8: 41900 MFI; B9: 28600 MFI.

The target in another test is CD28 (human) (UniProt P10747). Kind of test: flow cytometry, Jurkat/IL2 reporter cells (CD28).
B7 yielded an MFI at 33.3 nM of 309 MFI.
B8: the MFI at 33.3 nM stood at 131 MFI.
On the same count and under the same terms, as for B9, the figure is 1240 MFI.

The target in another test is human CTLA-4 (human) (UniProt P16410). Nature of the test: flow cytometry, CHO cells stably expressing CTLA4.
Molecule B1 displayed an MFI at 33.3 nM of 17200 MFI.
For B2, the MFI at 33.3 nM amounted to 17700 MFI.
On the same count and under the same terms, next, B3: 23900 MFI.
The same measure, in the same setting: as for B4, the figure is 22100 MFI; as for B5, 8280 MFI.
Turning to B6, the MFI at 33.3 nM came to 15200 MFI.

The target in the next test is human PD-L1 (human) (UniProt Q9NZQ7). Nature of the test: flow cytometry, CHO cells stably expressing PD-L1.
B1: the MFI at 33.3 nM worked out at 27500 MFI.
Consider B2, for which the MFI at 33.3 nM was found to be 33600 MFI.
The same measure, in the same setting: next, B3: 32300 MFI; B4: 67500 MFI.
For B5, the MFI at 33.3 nM is 27300 MFI.
In the case of B6, the MFI at 33.3 nM is 22400 MFI.

For another test, the target named is human CTLA-4 (human) (UniProt P16410). Kind of test: flow cytometry, CHO/CTLA4 cells; MFI over CD80 WT IgV-Fc.
As to B1, the Fold change to WT CD80 was 12.4 fold.
Same read-out and setting: next, B2: 12.8 fold; B3: 17.3 fold.
Still for that read-out and setting: next, B4: 16 fold; B5: 6 fold; B6: 11 fold.

A further test concerns the target human PD-L1 (human) (UniProt Q9NZQ7). Nature of the test: flow cytometry, CHO/PD-L1 cells; MFI over CD80 WT IgV-Fc.
Molecule B1 displayed a Fold change to WT CD80 of 167 fold.
Still for that read-out and setting: as for B2, the figure is 204 fold; as for B3, 196 fold.
On the same count and under the same terms, as for B4, the figure is 409 fold; as for B5, 165 fold; as for B6, 136 fold.

The next test has the same target. Kind of test: flow cytometry; PD-L1 MFI over CD28 MFI of the same protein.
For B7, the Ratio of PDL1:CD28 amounted to 6.1.
Take B8: the Ratio of PDL1:CD28 amounted to 16.8.
On the same count and under the same terms, next, B9: 22.4.

The next test has the same target. Nature of the test: flow cytometry, CHO/huPD-L1 cells; vs WT CD80 ECD-Fc (Abcam).
On to B7, for which the Fold change to WT CD80 was found to be 14.8 fold.
Same read-out and setting: as for B8, the figure is 17.2 fold; as for B9, 218 fold.

A further test has as its target CD28 (human) (UniProt P10747). Kind of test: flow cytometry, Jurkat cells (CD28); MFI over CD80 WT IgV-Fc.
For B1, the Fold change to WT CD80 stood at 59.1 fold.
Same read-out and setting: next, B2: 30.6 fold; B3: 47.1 fold; B4: 61.3 fold.
Still for that read-out and setting: next, B5: 17.8 fold.
The same measure, in the same setting: as for B6, the figure is 31.1 fold.

The next test addresses human CTLA-4 (human) (UniProt P16410). Nature of the test: flow cytometry, CHO/huCTLA-4 cells; vs WT CD80 ECD-Fc (Abcam).
B7: the Fold change to WT CD80 came out at 0.8 fold.
Same read-out and setting: next, B8: 1 fold.
Still for that read-out and setting: as for B9, the figure is 0.7 fold.

The target in a further test is CD28 (human) (UniProt P10747). Kind of test: flow cytometry, Jurkat cells (CD28); vs WT CD80 ECD-Fc (Abcam).
B7 yielded a Fold change to WT CD80 of 0.4 fold.
B8 returned a Fold change to WT CD80 of 0.2 fold.
On the same count and under the same terms, next, B9: 1.8 fold.
